In patent publication US20020031818A1, “Modification of Mdm2 activity” (priority 2000, published 2002):

Key:
Mdm2 = Mdm2 (Homo sapiens, UniProt Q00987); assay: Mdm2 sumoylation in EJ cells; assay type: cell-based, mouse; parameters: expressed in transfected cells; host or cells: EJ mouse fibroblasts (p19ARF null); details: EJ cells (lack p19ARF), Flag-Mdm2 and p19ARF constructs 2 μg
Protocol: FIG. 13A-13E. A. Bacterially expressed and purified Mdm2 (1 μg) was incubated with ^32P-labeled Sumo-1, purified Aos1/Uba2 and Ubc9 (0.5 μg) for 60 min at 37° C. in conjugation buffer. For indicated time-periods in vitro translated wt or mutant p19^ARF ([…]) was added to the sumoylation reactions. Upper panel depicts the amount of Sumoylated Mdm2, lower panel reveal the level of Mdm2 and Sumo-Mdm2 in Coomassie blue gel. B. Bacterially expressed and purified Mdm2 (1 μg) was incubated with in vitro-translated ^35S-Sumo, purified Aos1/Uba2 and Ubc9 (0.5 μg) for 60 min at 37° C. in conjugation buffer in the presence of the increasing amounts of bacculovirus-expressed p19^ARF (0, 0.1, 0.5, 1 μg; lanes 1-4 respectively). Bead-bound complexes were washed before being denatured in 3× Sample Buffer. Proteins were separated on 8% SDS-PAGE. Gel was stained with Coomassie blue to verify equal Mdm2 input (lower panel), dried and exposed to X-ray film, which depicts SUMO-1 conjugation to Mdm2 in the presence of the indicated p19 forms (upper panel). […] (Left) Immunoprecipitated Mdm2 was detected using monoclonal Mdm2 antibodies (2A10, left). […] SUMO-conjugation to Mdm2 was detected using monoclonal antibodies to SUMO-1 (top). […]

p53 = p53 ubiquitination and p53 level in EJ cells; assay type: cell-based, mouse
Text: FIG. 14A-14E. A. In vitro ubiquitination of Mdm2 is inhibited by p19^ARF. GST-Mdm2 was subjected to an in vitro ubiquitination reaction using purified forms of E1, E2 and Ub-HA in the presence of ATP. Addition of bacculovirus-purified p19^ARF at the indicated concentrations blocked Mdm2 ubiquitination. Glutathione bead-coupled GST-Mdm2 in its ubiquitinated or non-ubiquitinated forms was washed and analyzed on immunoblots using antibodies to HA (upper panel). Middle panel depicts the level of Mdm2 expression and the lower panel, the level of p19^ARF added to the reaction. B. p19^ARF expression increases Mdm2 self-ubiquitination in EJ cells. EJ cells were transfected with the indicated plasmids. Cells were harvested 36 h later and proteins ([…]) were immunoprecipitated using Mdm2 antibodies (2A10). Immunoprecipitated material was washed and proteins loaded onto 10% SDS-PAGE, followed by immunoblot analysis with HA-antibodies to detect covalent HA-ubiquitin conjugation to Mdm2 (upper panel). Middle panel depicts level of immunoprecipitated Mdm2. Lower panel represents western analysis of p19^ARF expression levels. C. In vitro ubiquitination of Mdm2 in the presence of p19^ARF and protein extracts. […] The level of p53 immunoprecipitated was monitored in immunoblots using polyclonal antibodies to p53 (middle). […]

Mdm2, sequence (Q00987 whole entry): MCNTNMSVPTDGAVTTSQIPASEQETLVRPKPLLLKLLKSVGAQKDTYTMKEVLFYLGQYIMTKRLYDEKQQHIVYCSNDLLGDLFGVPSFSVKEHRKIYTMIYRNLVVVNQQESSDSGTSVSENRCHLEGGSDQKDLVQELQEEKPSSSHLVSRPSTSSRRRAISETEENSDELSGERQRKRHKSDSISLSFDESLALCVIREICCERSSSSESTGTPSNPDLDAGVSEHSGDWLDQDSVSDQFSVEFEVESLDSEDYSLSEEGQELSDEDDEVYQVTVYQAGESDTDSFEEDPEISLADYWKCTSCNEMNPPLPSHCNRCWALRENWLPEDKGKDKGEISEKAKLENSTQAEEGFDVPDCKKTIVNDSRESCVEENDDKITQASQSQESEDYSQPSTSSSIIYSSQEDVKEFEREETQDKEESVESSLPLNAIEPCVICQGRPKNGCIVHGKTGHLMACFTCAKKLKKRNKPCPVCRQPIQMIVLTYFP

B1: p19^ARF: Mdm2-regulating protein; in vitro translated, bacculovirus-expressed or transfected (protein)
chain: MGRRFLVTVRIQRAGRPLQERVFLVKFVRSRRPRTASCALAFVNMLLRLERILRRGPHRNPGPGDDDGQRSRSSSSAQLRCRFELRGPHYLLPPGARRSAGRLPGHAGGAARVRGSAGCARCLGSPAARLGPRAGTSRHRAIFAFRWVLFVFRWVVFVYRWERRPDRRA
Mdm2 sumoylation in EJ cells upon co-expression (Mdm2): inhibition of Mdm2 sumoylation | levels of p53 (p53): elevated levels of p53 | degree of p53 ubiquitination (p53; Flag-Mdm2, wt p53, HA-Ub, p19ARF constructs 1 μg each): noticeable decrease in the degree of p53 ubiquitination
